Laboratory results taken from patent US20020164600A1 (Dana-Farber, published 2002).

T1: human PD-L2 (human, UniProt Q9BQ51 20-273)
T1 construct: Expressed on transfected COS and 300.19 cells (300-hPD-L2); also called hPD-L2
T1 sequence: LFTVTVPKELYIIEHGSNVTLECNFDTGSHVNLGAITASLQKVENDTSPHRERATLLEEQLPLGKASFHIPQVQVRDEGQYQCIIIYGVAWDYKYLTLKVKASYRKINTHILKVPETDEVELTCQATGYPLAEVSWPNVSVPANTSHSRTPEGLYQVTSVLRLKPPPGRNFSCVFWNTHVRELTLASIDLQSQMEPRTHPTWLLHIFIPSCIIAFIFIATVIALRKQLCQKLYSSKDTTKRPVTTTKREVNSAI

B1: IgG2a (control Ig) (other, mouse, UniProt P01863 98-330, looked up)
chain: EPRGPTIKPCPPCKCPAPNLLGGPSVFIFPPKIKDVLMISLSPIVTCVVVDVSEDDPDVQISWFVNNVEVHTAQTQTHREDYNSTLRVVSALPIQHQDWMSGKEFKCKVNNKDLPAPIERTISKPKGSVRAPQVYVLPPPEEEMTKKQVTLTCMVTDFMPEDIYVEWTNNGKTELNYKNTEPVLDSDGSYFMYSKLRVEKKNWVERNSYSCSVVHEGLHNHHTTKSFSRTPGK
notes: Control protein
B2: mouse PD-L2 (ligand)
chain: LFTVTAPKEVYTVDVGSSVSLECDFDRRECTELEGIRASLQKVENDTSLQSERATLLEEQLPLGKALFHIPSVQVRDSGQYRCLVICGAAWDYKYLTVKVKASYMRIDTRILEVPGTGEVQLTCQARGYPLAEVSWQNVSVPANTSHIRTPEGLYQVTSVLRLKPQPSRNFSCMFWNAHMKELTSAIIDPLSRMEPKVPRTWPLHVFIPACTIALIFLAIVIIQRKRI
notes: Expressed on transfected COS, CHO.I-A^d, CHO.I-A^d.B7-2 and 300.19 cells; also called murine PD-L2; mPD-L2

How the values were obtained:
human PD-L2 = molecular target: T1, human PD-L2; assay: FACS on transfected COS cells
IgG2a (control Ig) = molecular target: B1; assay: FACS on transfected COS cells

Binder | binding result (human PD-L2) | binding result (IgG2a (control Ig))
B1 | no binding | –
B2 | – | no binding
